Measurements taken from patent US6709814B1, “Peptides causing formation of compact structures” (Rigel Pharmaceuticals, Inc., priority 1998, dated 2004).
Bridge positions count the residues as written; N and C are the ends. Square brackets hold non-standard residues; d marks the D form. Ends that are not written are not given here. Peptide text beside a SMILES is read from it. pGlu = O=C1CC[C@@H](C(=O)O)N1

How the values were obtained:
[1] = molecular target: T1, porcine pancreatic elastase (Sus scrofa, UniProt P00772); assay: Inhibition of porcine pancreatic elastase (succinyl-ala-ala-ala-p-nitroanilide cleavage); format: biochemical; conditions: pH 7.88, 25 C
T1 construct: purchased Sigma Chemical Co., St. Louis, Mo
T1 sequence (P00772 27-266): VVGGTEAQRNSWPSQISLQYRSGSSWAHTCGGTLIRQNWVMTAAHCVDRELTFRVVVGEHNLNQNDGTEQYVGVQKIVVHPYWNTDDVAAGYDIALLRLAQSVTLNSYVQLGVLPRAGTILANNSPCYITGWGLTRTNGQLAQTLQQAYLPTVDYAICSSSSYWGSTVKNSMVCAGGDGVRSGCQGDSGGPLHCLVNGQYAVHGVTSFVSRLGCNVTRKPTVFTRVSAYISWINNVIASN
Description: Inhibition by different peptide constructs was followed by preincubation of 10 μM peptide with elastase for 1-1.5 min. followed by addition of the substrate. Percent inhibition was calculated as [1−{assay slope(peptide+elastase)/assay slope(elastase alone)}]×100%.

[2] = molecular target: T1, porcine pancreatic elastase; conditions: Leatherbarrow and Salacinski; read-out: reported apparent inhibition constant (Ki) for elastase; cited from earlier work
[3] = Observation of peptide dimers by electrospray MS / LC-MS under harsh conditions; format: binding; conditions: electrospray ion trap, infusion at pH 6.4 or C18 elution at ~pH 2.5 in acetonitrile
Description: The peptide also forms dimers (also detected by mass spectrometry) when eluted off a C18 reversed phase column at pH ˜2.5 in ca. 25% acetonitrile (FIG. 3B).
LC/MS examination of the crude synthesis products from an all-single coupled fmoc synthesis of EFLIVKS-amide, for shorter sequences which can dimerize after electrospray ionization is shown in FIG. 4. HPLC elution was with a gradient of 99.9% water-0.1% TFA to 99.9% acetonitrile-0.1% TFA. Dimers of the following truncated sequences were detected by mass spectrometry with the percent acetonitrile in parentheses, all at ˜pH 2.5: peak 1, […] (23.5%), monomer m/z=705.3, dimer m/z=1409.3; peak 4: EFLIVKS-amide (25%), monomer m/z=834.4, dimer m/z=1667.3; and peak 5, EFLIVK-amide (32%), monomer m/z=747.4, dimer m/z=1493.1.

[4] = Solubility of peptide constructs; format: physicochemical
[5] = cited from earlier work; for concentration at which dimers form / do not dissociate: aqueous solution, physiological conditions; for dimer formation of HA fragments: compared with HA
[6] = molecular target: the molecule itself; assay: self-dimerization, electrospray mass spectrometry, relative dimer ion current against peptide concentration, pH 5.0
[7] = molecular target: the molecule itself; assay: LC/MS, C18 reversed phase elution at ~pH 2.5, electrospray
[8] = molecular target: the molecule itself; assay: self-dimerization, electrospray mass spectrometry, alanine scan
[9] = molecular target: porcine pancreatic elastase (porcine, UniProt P00772 27-266); assay: cell-based or functional assay
Chain of porcine pancreatic elastase (porcine, UniProt P00772 27-266) (P00772 27-266 limits assumed): as the sequence (P00772 27-266) above

O=S(=O)(F)Cc1ccccc1 [PMSF]
inhibition of porcine pancreatic elastase ([1]; 2 mM PMSF): 100%

CC[C@H](C)[C@@H]1NC(=O)[C@H](CCCNC(=N)N)NC(=O)[C@H](Cc2ccc(O)cc2)NC(=O)[C@H](CCC(=O)O)NC(=O)[C@H](CCSC)NC(=O)[C@H]([C@@H](C)O)NC(=O)[C@H](C(C)C)NC(=O)[C@H]([C@@H](C)CC)NC(=O)[C@H]([C@@H](C)O)NC(=O)CNC(=O)[C@@H](N)CSSC[C@@H](C(=O)O)NC(=O)[C@H](Cc2ccccc2)NC(=O)[C@H](CO)NC(=O)[C@H](CCCNC(=N)N)NC(=O)[C@H]([C@@H](C)O)NC(=O)[C@H](CCCNC(=N)N)NC(=O)[C@H](CC(=O)O)NC1=O [cyclic[CGTIVTMEYRIDRTRSFC]] (H-CGTIVTMEYRIDRTRSFC-OH; disulfide 1-18)
inhibition of porcine pancreatic elastase ([1]; 500 nM peptide, 100 μM succ-ala-ala-ala-p-nitroanilide): 6.2% | Ki [2]: 0.00039 µM

EFLIVK-amide (EFLIVK-NH2)
dimer detected by mass spectrometry [3]: Dimers

EFLIVKS
dimer detected by mass spectrometry ([3]; listed as EFLIVKS-amide): self-associate to form dimers

EFLIVKSSTKSIPPQSEFLIVKS [EFLIVKS-STKSIPPQS-EFLIVKS]
solubility [4]: quite soluble at low pH

LIVKS-amide
dimer detected by mass spectrometry [3]: Dimers

SKVILFE
concentration at which dimers form / do not dissociate [5]: ~10^−13 M

VSIKFEL [peptide designed to form a short beta sheet]
dimer detected by mass spectrometry [3]: dimeric form of the peptide

[pGlu]PPGGSK
dimer formation of HA fragments [5]: did not lead to dimer formation

[pGlu]PPGGSKVILF [HA]
concentration at which dimers form / do not dissociate [5]: ≤ 10^−13 M

pSKVILF
dimer formation of HA fragments [5]: dimerized more efficiently

pVILF
dimer formation of HA fragments [5]: did not lead to dimer formation

B1: VSIKFEL (peptide)
peptide: VSIKFEL
notes: Peptide designed to form a short beta sheet
Kd [6]: 13 µM

B2: EFLIVK-amide (peptide)
peptide: EFLIVK-NH2
notes: Truncated by-product of the EFLIVKS-amide synthesis; also called peak 5
binding result [7]: binds

B3: EFLIVKS (peptide)
peptide: EFLIVKS-NH2
notes: also called EFLIVKS-amide; dimerizer
Kd [6]: 7.8 µM

B4: EALIVKS (peptide)
peptide: EALIVKS
notes: Alanine scan analog of EFLIVKS (F2A)
fold weakening of self-binding against EFLIVKS [8]: 5.4 fold | Kd [6]: 42 µM

B5: AFLIVKS (peptide)
peptide: AFLIVKS
notes: Alanine scan analog of EFLIVKS (E1A)
Kd [6]: 12 µM

B6: EFLIVKA (peptide)
peptide: EFLIVKA
notes: Alanine scan analog of EFLIVKS (S7A)
Kd [6]: 9.9 µM

B7: SKVILFE (peptide)
peptide: SKVILFE-NH2
notes: also called SKVILFE-amide; test peptide SKVILFE
Kd [6]: 12 µM

B8: EFAIVKS (peptide)
peptide: EFAIVKS
notes: Alanine scan analog of EFLIVKS (L3A)
fold weakening of self-binding against EFLIVKS [8]: 9.7 fold | Kd [6]: 76 µM

B9: EFLIAKS (peptide)
peptide: EFLIAKS
notes: Alanine scan analog of EFLIVKS (V5A)
fold weakening of self-binding against EFLIVKS [8]: 10 fold | Kd [6]: 82 µM

B10: KFLIVKS (peptide)
peptide: KFLIVKS
notes: Analog of EFLIVKS with the N-terminal glu replaced by lys
Kd [6]: 6.8 µM

B11: EFLAVKS (peptide)
peptide: EFLAVKS
notes: Alanine scan analog of EFLIVKS (I4A)
fold weakening of self-binding against EFLIVKS [8]: 5.4 fold | Kd [6]: 42 µM

B12: cyclic[CGTIVTMEYRIDRTRSFC] (peptide)
peptide: CGTIVTMEYRIDRTRSFC
modifications: disulfide 1-18
inhibition (% inhibition of elastase cleavage of succ-ala-ala-ala-p-nitroanilide) [9]: 6.2%

B13: EFLIVAS (peptide)
peptide: EFLIVAS
notes: Alanine scan analog of EFLIVKS (K6A)
fold weakening of self-binding against EFLIVKS [8]: 6 fold | Kd [6]: > 50 µM
